Results on three molecules are retold here after patent US20130272958A1 (NATIONAL RESEARCH COUNCIL OF CANADA, published 2013).

The target of experiment [1] is recombinant CEACAM6 N-terminal domain (expressed in E. coli) (Homo sapiens (Human)) (UniProt P40199). In words: SPR (Biacore 3000), 9A6 immobilised, CEACAM6 recombinant protein injected at 0.1-200 nM. A general note: SPR reads the build-up and loss of mass on a sensor chip optically.
Experiment [2] concerns the target T1, CEACAM6 peptide HNLPQNRIGYSWYKG
T1 construct: Spot on a JPT peptide array (45 peptides, 15 residues long, 10 overlapping)
T1 peptide: HNLPQNRIGYSWYKG
As to the kind of experiment: peptide array membrane, anti-llama detection.

The target of experiment [3] is T2, CEACAM6 peptide NRIGYSWYKGERVDG
T2 construct: Spot on a JPT peptide array (45 peptides, 15 residues long, 10 overlapping)
T2 peptide: NRIGYSWYKGERVDG
In words: peptide array membrane, anti-llama detection.

For experiment [4], the target named is T3, native CEACAM6 expressed by human tumor cells (BxPC3, LS174T, A549) (human, UniProt P40199 35-320).
T3 sequence: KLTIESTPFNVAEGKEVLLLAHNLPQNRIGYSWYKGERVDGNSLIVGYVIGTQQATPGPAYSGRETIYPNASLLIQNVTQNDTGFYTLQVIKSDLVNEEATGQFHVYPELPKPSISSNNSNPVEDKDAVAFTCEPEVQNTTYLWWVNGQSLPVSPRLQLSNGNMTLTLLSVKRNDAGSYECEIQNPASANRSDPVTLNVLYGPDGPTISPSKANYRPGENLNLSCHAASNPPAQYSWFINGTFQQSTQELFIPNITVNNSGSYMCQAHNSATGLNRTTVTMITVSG
As to the kind of experiment: cell-based or functional assay.

Experiment [5] addresses T4, recombinant CEACAM6 N-terminal domain (expressed in E. coli) (Homo sapiens (Human), UniProt P40199 35-142, limits assumed).
T4 construct: also called CEACAM6 N-domain; recombinant CEACAM6 protein (N-domain)
T4 sequence: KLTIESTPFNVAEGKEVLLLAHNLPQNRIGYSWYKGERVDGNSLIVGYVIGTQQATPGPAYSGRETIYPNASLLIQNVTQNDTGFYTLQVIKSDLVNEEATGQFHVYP
In words: SPR (Biacore 3000), CEACAM6 immobilised, 2A3 injected at 1-60 nM, 1:1 Langmuir fit.
Experimental: Immobilizations were performed with an amine-coupling kit (GE Healthcare) and carried out at 50 μg/ml CEACAM6 in 10 mM Acetate, pH 4 (GE Healthcare) and 50 μg/ml of Ovalbumin in 10 mM Acetate, pH 4.5. 120 μL of the sdAb at concentration of 1 nM to 60 nM were injected over the surfaces at a flow rate of 40 μl/min. Analyses were carried out at room temperature in HBS-EP, 10 mM HEPES pH 7.4, 150 mM NaCl, 3 mM EDTA and 0.005% surfactant P20 (GE Healthcare). Regeneration was performed with running buffer (HBS-EP). Data were analyzed with BIAevaluation software 4.1.

Experiment [6] deals with T4, recombinant CEACAM6 N-terminal domain …. In words: SPR (Biacore 3000), 2A3-Fc immobilised, CEACAM6 recombinant protein injected at 0.1-200 nM.
Experimental: One hundred twenty microliters of CEACAM6 recombinant protein at concentration of 0.1 nM to 200 nM was injected over the surfaces at a flow rate of 40 μl min-1. Analyses were carried out at room temperature in HBS-EP comprising 10 mM HEPES pH 7.4, 150 mM NaCl, 3 mM EDTA and 0.005% surfactant P20 (GE Healthcare). Regeneration was performed with HBS-EP used as running buffer. The data were analyzed by using BIAevaluation software 4.1.

The Kd is a measure of binding affinity in units of concentration. Turning to “anti-CEACAM6 mouse monoclonal antibody 9A6 (Santa Cruz Biotechnology)”, the dissociation constant (Kd) in experiment [1] stood at 8 nM.

B1: sdAb 2A3 (engineered, with c-myc and His tags) (VHH)
VHH: QVKLEESGGGLVQAGGSLRLSCRTSGRTNSVYTMGWFRQAPGKEREFVAQIMWGAGTNTHYADSVKGRFTISRDSAESTVYLQMNSLKPEDTAVYYCAANRGIPIAGRQYDYWGQGTQVTVSS
modifications: FITC-labelled in the staining and flow cytometry assays
notes: Llama VHH expressed in the E. coli periplasm and purified by IMAC; monomer by size exclusion; also called 2A3 sdAb; FITC-2A3
The koff is the first-order rate constant of dissociation. By kon is commonly meant the rate constant with which the complex forms. Regarding B1, in experiment [2], the binding result is “binds”. In addition, the binding result in experiment [3] is listed as “binds”. Moreover, the “BxPC3 cell proliferation (MTT assay), IC50” value in experiment [4] is 6500 nM. Besides, in experiment [5], the Kd is 4.7 nM, the koff was determined as 0.0053 s⁻¹ and the kon was 1.1e+06 M⁻¹ s⁻¹.

B2: 2A3-Fc (2A3 sdAb fused to mouse Fc2b fragment) (Fc fusion)
chain: QVKLEESGGGLVQAGGSLRLSCRTSGRTNSVYTMGWFRQAPGKEREFVAQIMWGAGTNTHYADSVKGRFTISRDSAESTVYLQMNSLKPEDTAVYYCAANRGIPIAGRQYDYWGQGTQVTVSS
modifications: FITC, Alexa Fluor 594 or 64Cu-DOTA label in some assays
notes: Expressed in 293-6E cells and purified on Protein G; about 80 kDa, bivalent; also called 2A3-mFc; 2A3mFc; not shown: mouse Fc2b fragment (Fc of mouse IgG2b) from vector pTT5
On to B2, for which, in experiment [6], the dissociation constant (Kd) came out at 13 nM. In addition, the “BxPC3 cell proliferation (MTT assay), IC50” value in experiment [4] was 8000 nM.
